Here are results for 1 protein from article PMC3365590 (Journal of Molecular Biology, 2010).

This data set deals with the molecule itself. The experiment in a line: SEC.

B1: ROK fructokinase YdhR from Bacillus subtilis, native protein (size exclusion chromatography) (enzyme, B. subtilis, UniProt O05510 1-299, looked up)
chain: MLGGIEAGGTKFVCAVGREDGTIIDRIEFPTKMPDETIEKVIQYFSQFSLQAIGIGSFGPVDNDKTSQTYGTITATPKAGWRHYPFLQTVKNEMKIPVGFSTDVNAAALGEFLFGEAKGLDSCLYITIGTGIGAGAIVEGRLLQGLSHPEMGHIYIRRHPDDVYQGKCPYHGDCFEGLASGPAIEARWGKKAADLSDIAQVWELEGYYIAQALAQYILILAPKKIILGGGVMQQKQVFSYIYQYVPKIMNSYLDFSELSDDISDYIVPPRLGSNAGIIGTLVLAHQALQAEAASGEVRS
Take B1: the “stoichiometry N” value worked out at 2.
